The source of these data is patent US20100323955A1, “METHODS FOR TREATING OBESITY AND OBESITY RELATED DISEASES AND DISORDERS” (AMYLIN PHARMACEUTICALS, INC., priority 2007, published 2010).

The nature of assay [1]: Example 3: leptin effect on body weight in normal HSD versus DIO prone rats. In kind it is in vivo, rat. The conditions noted are these: FIG. 9. From the text:
Normal, lean HSD rats were divided into two treatment groups. […] […] The DIO prone animals described herein appear resistant to the weight reducing effect of leptin.

Assay [2] can be described thus: Example 8: 24-week randomized, double-blind clinical study of pramlintide and metreleptin in overweight and obese subjects. In kind it is in vivo, human. To be noted: 4-week lead-in; all subjects received pramlintide 180 then 360 mcg BID; columns name the later randomization groups. On the procedure:
To evaluate inter alia the safety, tolerability and effect of the combination of an amylin agonist (pramlintide) and a leptin (metreleptin) on changes in body weight, a 24-week, randomized, double-blind, active-drug-controlled, multicenter study was conducted under USFDA approved protocols. Secondary objectives of the study were the determination of the pharmacokinetics of pramlintide and leptin, waist circumference, rate of change in body weight, and patient reported outcomes including for example without limitation perception of well-being related to weight change and mood. The study enrolled overweight and obese subjects with defined BMI ([…]), with enrollment statistics as provided in Table 2. […] Subjects treated with pramlintide/metreleptin lost an average of 25 pounds from the start of the 24-week study compared with an average of 17 pounds for subjects treated with pramlintide alone.
In an initial lead-in phase, all subjects received dietary instructions and treatment with pramlintide at 180 mcg BID for two weeks, followed by pramlintide at 360 mcg BID for two weeks. Subjects who completed the 4-week lead-in period and who lost 2-8 percent body weight during this period were eligible to continue the study. The term “enrolled” (Table 2) refers to subjects (N=177) receiving at least one dose of pramlintide during the lead-in period. […]

B1: murine leptin (protein, UniProt P41160 22-167, looked up)
Leptin: VPIQKVQDDTKTLIKTIVTRINDISHTQSVSAKQRVTGLDFIPGLHPILSLSKMDQTLAVYQQVLTSLPSQNVLQIANDLENLRDLLHLLAFSKSCSLPQTSGLQKPESLDGVLEASLYSTEVVALSRLQGSLQDILQQLDVSPEC
notes: murine leptin (Peprotech, catalog#450-31)
Take B1: the “body weight, DIO prone animals” value in assay [1] (DIO prone rats, leptin dose printed 500 mg/kg/day) is recorded as “ineffective”. Further, the “body weight, normal HSD rats” value in assay [1] (normal, lean HSD rats, leptin 500 μg/kg/day, 14 days) was “significant and sustained reduction in body weight”. Besides, the “Mean Change in Body Weight (kg) over lead-in period” value in assay [2] was -3.97 kg.
